Values belong to the binder of their own block, whether it stands above or below them.
Tests used:
[1] = target: T1, PureCol native bovine dermal collagen type I (bovine, UniProt P02453 162-1217; P02465 80-1117); test: ELISA; solid-phase assay: plates coated with 10 μg/ml native or denatured Col I, blocked with 2% BSA; biotinylated fibrinogen in 0.5% BSA in Ca2+- and Mg2+-free PBS pH 7.4, 2 h at 37°C; avidin-alkaline phosphatase; conditions: both partners purified
T1 construct: collagen α1(I) chain, bovine (Bos taurus), from dermis; collagen α2(I) chain, bovine; Native triple helix; Prolines are in part hydroxylated in the tissue protein; also called Col I; native Col I; source: bought: Advanced Biomatrix (PureCol, 3 mg/ml)

[2] = target: T1, PureCol native bovine dermal collagen …; test: SPR; Col I (PureCol bovine dermal and mouse-tail tendon) coupled to a BiaCore C1 chip; freshly dissolved, filtered fibrinogen in PBS passed over the chip, then wash-out; conditions: both partners purified

T1 sequence (P02453 162-1217, chain 1 of 2): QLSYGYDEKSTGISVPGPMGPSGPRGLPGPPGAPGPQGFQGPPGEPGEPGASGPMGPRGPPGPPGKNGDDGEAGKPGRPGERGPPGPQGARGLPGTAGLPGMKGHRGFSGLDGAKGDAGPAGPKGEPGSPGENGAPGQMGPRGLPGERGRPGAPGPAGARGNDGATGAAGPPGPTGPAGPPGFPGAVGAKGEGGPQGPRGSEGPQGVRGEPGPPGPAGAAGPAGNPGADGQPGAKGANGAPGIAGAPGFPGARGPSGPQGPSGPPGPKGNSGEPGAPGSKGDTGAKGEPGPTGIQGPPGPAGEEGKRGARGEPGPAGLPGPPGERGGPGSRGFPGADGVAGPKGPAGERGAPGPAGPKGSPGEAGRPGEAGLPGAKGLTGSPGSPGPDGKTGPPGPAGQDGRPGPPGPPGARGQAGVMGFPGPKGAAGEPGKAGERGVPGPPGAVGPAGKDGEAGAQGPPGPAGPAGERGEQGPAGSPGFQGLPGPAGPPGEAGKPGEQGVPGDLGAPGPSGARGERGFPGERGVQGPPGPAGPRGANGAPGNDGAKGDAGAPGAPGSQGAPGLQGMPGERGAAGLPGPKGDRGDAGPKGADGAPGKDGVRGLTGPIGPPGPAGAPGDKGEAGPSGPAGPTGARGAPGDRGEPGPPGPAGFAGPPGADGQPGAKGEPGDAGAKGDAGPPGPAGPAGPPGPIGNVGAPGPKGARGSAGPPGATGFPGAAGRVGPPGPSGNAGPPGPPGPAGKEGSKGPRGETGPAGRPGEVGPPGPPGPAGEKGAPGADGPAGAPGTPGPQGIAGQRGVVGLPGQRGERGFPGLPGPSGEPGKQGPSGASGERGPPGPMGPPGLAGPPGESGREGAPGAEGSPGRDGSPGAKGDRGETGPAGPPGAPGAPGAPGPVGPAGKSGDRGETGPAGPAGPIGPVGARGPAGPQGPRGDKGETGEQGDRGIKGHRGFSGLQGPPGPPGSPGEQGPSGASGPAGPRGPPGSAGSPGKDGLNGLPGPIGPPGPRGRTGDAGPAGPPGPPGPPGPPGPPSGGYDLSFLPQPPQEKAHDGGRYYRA
T1 sequence (P02465 80-1117, chain 2 of 2): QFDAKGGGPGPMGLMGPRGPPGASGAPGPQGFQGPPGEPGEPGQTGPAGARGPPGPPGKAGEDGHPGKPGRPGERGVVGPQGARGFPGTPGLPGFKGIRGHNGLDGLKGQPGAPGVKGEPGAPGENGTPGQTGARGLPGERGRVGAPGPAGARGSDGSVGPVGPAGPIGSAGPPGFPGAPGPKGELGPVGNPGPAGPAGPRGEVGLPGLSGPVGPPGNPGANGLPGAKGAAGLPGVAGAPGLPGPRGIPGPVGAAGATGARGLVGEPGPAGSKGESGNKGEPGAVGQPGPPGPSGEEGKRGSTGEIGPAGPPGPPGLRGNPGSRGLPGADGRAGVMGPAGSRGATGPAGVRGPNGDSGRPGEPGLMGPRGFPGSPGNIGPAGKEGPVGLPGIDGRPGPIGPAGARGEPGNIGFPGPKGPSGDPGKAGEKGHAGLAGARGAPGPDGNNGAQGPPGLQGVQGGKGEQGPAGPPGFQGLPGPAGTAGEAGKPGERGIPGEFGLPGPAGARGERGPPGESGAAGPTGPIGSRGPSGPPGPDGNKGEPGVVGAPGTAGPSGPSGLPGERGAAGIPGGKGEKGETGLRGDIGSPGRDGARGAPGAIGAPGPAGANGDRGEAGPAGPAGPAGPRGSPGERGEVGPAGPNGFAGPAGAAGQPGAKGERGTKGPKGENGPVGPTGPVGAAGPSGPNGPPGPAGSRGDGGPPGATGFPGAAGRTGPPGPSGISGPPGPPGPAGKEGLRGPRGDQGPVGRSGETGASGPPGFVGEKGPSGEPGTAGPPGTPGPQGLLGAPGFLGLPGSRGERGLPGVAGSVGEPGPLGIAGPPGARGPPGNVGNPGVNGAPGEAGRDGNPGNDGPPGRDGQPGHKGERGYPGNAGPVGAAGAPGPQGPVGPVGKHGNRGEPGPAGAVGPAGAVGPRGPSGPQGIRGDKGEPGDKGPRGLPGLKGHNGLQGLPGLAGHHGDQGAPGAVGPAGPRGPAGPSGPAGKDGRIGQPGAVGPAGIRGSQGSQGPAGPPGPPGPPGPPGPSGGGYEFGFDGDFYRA

- EC50 [1]: ~70 nM
B1: biotinylated human plasma fibrinogen (natural protein)
chain 1: ADSGEGDFLAEGGGVRGPRVVERHQSACKDSDWPFCSDEDWNYKCPSGCRMKGLIDEVNQDFTNRINKLKNSLFEYQKNNKDSHSLTTNIMEILRGDFSSANNRDNTYNRVSEDLRSRIEVLKRKVIEKVQHIQLLQKNVRAQLVDMKRLEVDIDIKIRSCRGSCSRALAREVDLKDYEDQQKQLEQVIAKDLLPSRDRQHLPLIKMKPVPDLVPGNFKSQLQKVPPEWKALTDMPQMRMELERPGGNEITRGGSTSYGTGSETESPRNPSSAGSWNSGSSGPGSTGNRNPGSSGTGGTATWKPGSSGPGSTGSWNSGSSGTGSTGNQNPGSPRPGSTGTWNPGSSERGSAGHWTSESSVSGSTGQWHSESGSFRPDSPGSGNARPNNPDWGTFEEVSGNVSPGTRREYHTEKLVTSKGDKELRTGKEKVTSGSTTTTRRSCSKTVTKTVIGPDGHKEVTKEVVTSEDGSDCPEAMDLGTLSGIGTLDGFRHRHPDEAAFFDTASTGKTFPGFFSPMLGEFVSETESRGSESGIFTNTKESSSHHPGIAEFPSRGKSSSYSKQFTSSTSYNRGDSTFESKSYKMADEAGSEADHEGTHSTKRGHAKSRPV
chain 2: QGVNDNEEGFFSARGHRPLDKKREEAPSLRPAPPPISGGGYRARPAKAAATQKKVERKAPDAGGCLHADPDLGVLCPTGCQLQEALLQQERPIRNSVDELNNNVEAVSQTSSSSFQYMYLLKDLWQKRQKQVKDNENVVNEYSSELEKHQLYIDETVNSNIPTNLRVLRSILENLRSKIQKLESDVSAQMEYCRTPCTVSCNIPVVSGKECEEIIRKGGETSEMYLIQPDSSVKPYRVYCDMNTENGGWTVIQNRQDGSVDFGRKWDPYKQGFGNVATNTDGKNYCGLPGEYWLGNDKISQLTRMGPTELLIEMEDWKGDKVKAHYGGFTVQNEANKYQISVNKYRGTAGNALMDGASQLMGENRTMTIHNGMFFSTYDRDNDGWLTSDPRKQCSKEDGGGWWYNRCHAANPNGRYYWGGQYTWDMAKHGTDDGVVWMNWKGSWYSMRKMSMKIRPFFPQQ
chain 3: YVATRDNCCILDERFGSYCPTTCGIADFLSTYQTKVDKDLQSLEDILHQVENKTSEVKQLIKAIQLTYNPDESSKPNMIDAATLKSRKMLEEIMKYEASILTHDSSIRYLQEIYNSNNQKIVNLKEKVAQLEAQCQEPCKDTVQIHDITGKDCQDIANKGAKQSGLYFIKPLKANQQFLVYCEIDGSGNGWTVFQKRLDGSVDFKKNWIQYKEGFGHLSPTGTTEFWLGNEKIHLISTQSAIPYALRVELEDWNGRTSTADYAMFKVGPEADKYRLTYAYFAGGDAGDAFDGFDFGDDPSDKFFTSHNGMQFSTWDNDNDKFEGNCAEQDGSGWWMNKCHAGHLNGVYYQGGTYSKASTPNGYDNGIIWATWKTRWYSMKKTTMKIIPFNRLTIGEGQQHHLGGAKQAGDV
modifications: biotin (biotin N-hydroxysuccinimide ester; which chains and residues not stated) | biotin (biotin N-hydroxysuccinimide ester; which chains and residues not stated) | biotin (biotin N-hydroxysuccinimide ester; which chains and residues not stated)

- EC50 [2]: ~10 nM
B2: human plasma fibrinogen (natural protein)
chain 1: ADSGEGDFLAEGGGVRGPRVVERHQSACKDSDWPFCSDEDWNYKCPSGCRMKGLIDEVNQDFTNRINKLKNSLFEYQKNNKDSHSLTTNIMEILRGDFSSANNRDNTYNRVSEDLRSRIEVLKRKVIEKVQHIQLLQKNVRAQLVDMKRLEVDIDIKIRSCRGSCSRALAREVDLKDYEDQQKQLEQVIAKDLLPSRDRQHLPLIKMKPVPDLVPGNFKSQLQKVPPEWKALTDMPQMRMELERPGGNEITRGGSTSYGTGSETESPRNPSSAGSWNSGSSGPGSTGNRNPGSSGTGGTATWKPGSSGPGSTGSWNSGSSGTGSTGNQNPGSPRPGSTGTWNPGSSERGSAGHWTSESSVSGSTGQWHSESGSFRPDSPGSGNARPNNPDWGTFEEVSGNVSPGTRREYHTEKLVTSKGDKELRTGKEKVTSGSTTTTRRSCSKTVTKTVIGPDGHKEVTKEVVTSEDGSDCPEAMDLGTLSGIGTLDGFRHRHPDEAAFFDTASTGKTFPGFFSPMLGEFVSETESRGSESGIFTNTKESSSHHPGIAEFPSRGKSSSYSKQFTSSTSYNRGDSTFESKSYKMADEAGSEADHEGTHSTKRGHAKSRPVRGIHTSPLGKPSLSP
chain 2: B1 chain 2
chain 3: B1 chain 3
notes: fibrinogen Aα-chain, human, from plasma; fibrinogen Bβ-chain, human, from plasma; fibrinogen γ-chain, human, from plasma; In the gel contraction assays it was converted into fibrin by thrombin; also called unlabelled fibrinogen; non-biotinylated fibrinogen; source: bought: Sigma-Aldrich; copies: 2 + 2 + 2

From publication PMC4109839, “Fibrin binds to collagen and provides a bridge for αVβ3 integrin-dependent contraction of collagen gels” (Biochemical Journal, 2014)
